Experimental data taken from patent US20240018237A1 (SICHUAN KELUN BIOTECH BIOPHARMACEUTICAL, published 2024).
Positions count from the first letter of the chain named.

B1: 19F6-Hu35V5 (antibody, human IgG1, kappa, V domains shown)
VH: QVQLQESGPGLVKPSQTLSLTCTVSGYSITSDYAWNWIRQFPGKGLEWIGYISYSGSIRYNPSLKSRVTISRDTSKNQFSLKLSSVTAADTAVYYCARGEITYYFDYWGQGTLVTVSS
VL: ETTLTQSPAFMSATPGDKVTISCKASTDIDDDMNWYQQKPGKPPKLIISEGNTLRPGIPPRFSSSGYGTDFTFTINNIKSEDAATYYCLQSNDLPLTFGQGTKLEIKR
notes: humanized, human IgG1 / kappa
B2: 19F6-Hu15 (antibody, human IgG1, kappa, V domains shown)
VH: B1 VH with Q16E, S25T, F41P, I49M, N61K, S66D, V68I
VL: B1 VL with K42E, K79E, T85D
notes: humanized, human IgG1 / kappa
B3: 19F6-Hu25 (antibody, human IgG1, kappa, V domains shown)
VH: B1 VH with Q16E, F41P, I49M, S66D, V68I
VL: B1 VL with K42E, K79E, T85D
notes: humanized, human IgG1 / kappa
B4: 3D8-HuC84 (antibody, human IgG1, kappa, V domains shown)
VH: EVQLVESGGGLVQPGGSLRLSCAASGFTFSSYAMSWVRQAPEKRLEWVSSISSGGSTYYPDSVKGRFTISRDNSKNTLYLQMNSLRAEDTAVYYCARVNYYGYGDYAMDYWGQGTLVTVSS
VL: DIQMTQSPSSLSASVGDRVTITCQASQDISNYLTWFQQKPGKSPKTLIHRANRLVTGVPSRFSGSGSGTDFTFTISSLQPEDIATYYCLQYDEFPYTFGGGTKVEIKR
notes: humanized, human IgG1 / kappa
B5: 38F8-Hu27 (antibody, human IgG1, kappa, V domains shown)
VH: EVQLVESGGGLVQPGGSLRLSCAASGFTFSNYAMSWVRQAPGKGLEWVASISSGGPTYYPDSVKGRFTVSRDNSKNTLYLQMNSLRAEDTAVYYCARGYRYDVNWYFDVWGAGTMVTVSS
VL: B4 VL with F71Y, T85I
notes: humanized, human IgG1 / kappa
B6: 3D8-HuC94 (antibody, human IgG1, kappa, V domains shown)
VH: B4 VH with S53N
VL: B4 VL
notes: humanized, human IgG1 / kappa
B7: 38F8-Hu67 (antibody, human IgG1, kappa, V domains shown)
VH: B5 VH with E1Q, Q13K, G42E, G44R, V69I, S74A, T77S
VL: B4 VL with F71Y, T85I
notes: humanized, human IgG1 / kappa
B8: 38F8-Hu38 (antibody, human IgG1, kappa, V domains shown)
VH: B5 VH with E1Q, Q13K, P60A, V69I, S74A, T77S
VL: B4 VL with S30N, N31S, F71Y, T85I
notes: humanized, human IgG1 / kappa
B9: 38F8-Hu14 (antibody, human IgG1, kappa, V domains shown)
VH: B5 VH with A23T, P60A, K75R, A112R, M115L
VL: B4 VL
notes: humanized, human IgG1 / kappa
B10: 38F8-Hu17 (antibody, human IgG1, kappa, V domains shown)
VH: B5 VH with A23T, P60A, K75R, A112R, M115L
VL: B4 VL with F71Y, T85I
notes: humanized, human IgG1 / kappa
B11: 38F8-Hu36 (antibody, human IgG1, kappa, V domains shown)
VH: B5 VH with E1Q, Q13K, P60A, V69I, S74A, T77S
VL: B4 VL with S30N, N31S
notes: humanized, human IgG1 / kappa
B12: 38F8-Hu28 (antibody, human IgG1, kappa, V domains shown)
VH: B5 VH
VL: B4 VL with S30N, N31S, F71Y, T85I
notes: humanized, human IgG1 / kappa
B13: 38F8-Hu66 (antibody, human IgG1, kappa, V domains shown)
VH: B5 VH with E1Q, Q13K, G42E, G44R, V69I, S74A, T77S
VL: B4 VL with S30N, N31S
notes: humanized, human IgG1 / kappa
B14: 38F8-Hu26 (antibody, human IgG1, kappa, V domains shown)
VH: B5 VH
VL: B4 VL with S30N, N31S
notes: humanized, human IgG1 / kappa
B15: 38F8-Hu18 (antibody, human IgG1, kappa, V domains shown)
VH: B5 VH with A23T, P60A, K75R, A112R, M115L
VL: B4 VL with S30N, N31S, F71Y, T85I
notes: humanized, human IgG1 / kappa
B16: 38F8-Hu16 (antibody, human IgG1, kappa, V domains shown)
VH: B5 VH with A23T, P60A, K75R, A112R, M115L
VL: B4 VL with S30N, N31S
notes: humanized, human IgG1 / kappa
B17: 38F8-Hu56 (antibody, human IgG1, kappa, V domains shown)
VH: B5 VH with G42E, G44R
VL: B4 VL with S30N, N31S
notes: humanized, human IgG1 / kappa
B18: 38F8-Hu24 (antibody, human IgG1, kappa, V domains shown)
VH: B5 VH
VL: B4 VL
notes: humanized, human IgG1 / kappa
B19: 38F8-Hu68 (antibody, human IgG1, kappa, V domains shown)
VH: B5 VH with E1Q, Q13K, G42E, G44R, V69I, S74A, T77S
VL: B4 VL with S30N, N31S, F71Y, T85I
notes: humanized, human IgG1 / kappa
B20: 38F8-Hu37 (antibody, human IgG1, kappa, V domains shown)
VH: B5 VH with E1Q, Q13K, P60A, V69I, S74A, T77S
VL: B4 VL with F71Y, T85I
notes: humanized, human IgG1 / kappa
B21: 38F8-Hu34 (antibody, human IgG1, kappa, V domains shown)
VH: B5 VH with E1Q, Q13K, P60A, V69I, S74A, T77S
VL: B4 VL
notes: humanized, human IgG1 / kappa
B22: 38F8-Hu64 (antibody, human IgG1, kappa, V domains shown)
VH: B5 VH with E1Q, Q13K, G42E, G44R, V69I, S74A, T77S
VL: B4 VL
notes: humanized, human IgG1 / kappa
B23: 38F8-Hu54 (antibody, human IgG1, kappa, V domains shown)
VH: B5 VH with G42E, G44R
VL: B4 VL
notes: humanized, human IgG1 / kappa
B24: 38F8-Hu58 (antibody, human IgG1, kappa, V domains shown)
VH: B5 VH with G42E, G44R
VL: B4 VL with S30N, N31S, F71Y, T85I
notes: humanized, human IgG1 / kappa

What follows are binders tested against T1, human ROR1 (full-length, on the cell surface) (human, UniProt Q01973 30-937) (assay: flow cytometry, A549 cells).
T1 construct: whole, on cells; the tumour cell lines carry their own ROR1; also called Ba/F3-ROR1 cells; Jeko-1
T1 sequence (Q01973 30-937): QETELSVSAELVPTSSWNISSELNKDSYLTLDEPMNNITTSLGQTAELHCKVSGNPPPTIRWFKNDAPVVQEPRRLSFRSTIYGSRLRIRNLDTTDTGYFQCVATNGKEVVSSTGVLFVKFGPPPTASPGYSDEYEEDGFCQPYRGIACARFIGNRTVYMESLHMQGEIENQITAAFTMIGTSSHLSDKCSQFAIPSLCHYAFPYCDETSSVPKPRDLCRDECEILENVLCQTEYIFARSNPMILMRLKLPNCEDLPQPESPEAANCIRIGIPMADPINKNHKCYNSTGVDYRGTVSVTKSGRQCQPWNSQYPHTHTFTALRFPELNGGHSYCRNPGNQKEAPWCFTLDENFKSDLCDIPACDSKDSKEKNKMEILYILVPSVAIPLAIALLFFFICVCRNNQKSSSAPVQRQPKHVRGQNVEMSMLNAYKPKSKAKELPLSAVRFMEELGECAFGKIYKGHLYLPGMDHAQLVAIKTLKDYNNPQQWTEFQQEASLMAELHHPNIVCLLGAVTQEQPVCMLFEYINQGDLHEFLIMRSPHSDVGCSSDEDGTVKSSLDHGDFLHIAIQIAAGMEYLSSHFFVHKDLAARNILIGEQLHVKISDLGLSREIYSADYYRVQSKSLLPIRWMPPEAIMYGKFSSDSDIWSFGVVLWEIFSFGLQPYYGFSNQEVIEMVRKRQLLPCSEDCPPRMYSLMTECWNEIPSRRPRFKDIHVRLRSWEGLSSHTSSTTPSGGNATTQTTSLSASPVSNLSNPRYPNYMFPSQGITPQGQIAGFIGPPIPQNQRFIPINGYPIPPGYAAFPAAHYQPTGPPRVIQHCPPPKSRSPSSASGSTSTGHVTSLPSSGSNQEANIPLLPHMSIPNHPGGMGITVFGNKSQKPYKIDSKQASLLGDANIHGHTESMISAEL
Experimental: (§1) The affinities of the anti-human ROR1 humanized antibodies to Ba/F3-ROR1, Jeko-1, HT-29 and A549 cells were detected by flow cytometry. The specific experimental steps were as follows: the BaBF3-ROR1, Jeko-1, HT-29 and A549 cells were incubated with the purified humanized antibodies of different concentration gradients on ice for 30 minutes, and the anti-ROR1 antibody UC961 with human IgG1 and the anti-TNP antibody were used as positive and negative controls, respectively.

| EC50 [pM] | Binder |
| --- | --- |
| 160 | B1 |
| 90 | B2 |
| 130 | B3 |
| 850 | B4 |
| 270 | B5 |
| 1380 | B6 |
| 400 | B7 |
| 380 | B8 |
| 340 | B9 |
| 210 | B10 |
| 300 | B11 |
| 340 | B12 |
| 350 | B13 |
| 290 | B14 |
| 280 | B15 |
| 220 | B16 |
| 320 | B17 |
| 210 | B18 |
| 540 | B19 |
| 310 | B20 |
| 190 | B21 |
| 310 | B22 |
| 460 | B23 |
| 320 | B24 |

Each binder was assayed against T1, human ROR1 (full-length, on the cell …) (assay: flow cytometry, HT-29 cells).
Experimental: as §1

| EC50 [pM] | Binder |
| --- | --- |
| 170 | B1 |
| 70 | B2 |
| 80 | B3 |
| 1300 | B4 |
| 250 | B5 |
| 740 | B6 |
| 610 | B7 |
| 590 | B8 |
| 240 | B9 |
| 290 | B10 |
| 370 | B11 |
| 240 | B12 |
| 440 | B13 |
| 330 | B14 |
| 350 | B15 |
| 310 | B16 |
| 420 | B17 |
| 240 | B18 |
| 550 | B19 |
| 440 | B20 |
| 290 | B21 |
| 420 | B22 |
| 490 | B23 |
| 430 | B24 |

What follows are binders tested against T1, human ROR1 (full-length, on the cell …) (assay: flow cytometry, Jeko-1 cells).
Experimental: as §1

| EC50 [pM] | Binder |
| --- | --- |
| 130 | B1 |
| 210 | B2 |
| 190 | B3 |
| 60 | B4 |
| 70 | B5 |
| 60 | B6 |
| 100 | B7 |
| 130 | B8 |
| 80 | B9 |
| 70 | B10 |
| 90 | B11 |
| 120 | B12 |
| 110 | B13 |
| 90 | B14 |
| 110 | B15 |
| 80 | B16 |
| 100 | B17 |
| 50 | B18 |
| 110 | B19 |
| 100 | B20 |
| 60 | B21 |
| 90 | B22 |
| 90 | B23 |
| 90 | B24 |

The binders below were run against T1, human ROR1 (full-length, on the cell …) (assay: flow cytometry, Ba/F3-ROR1 cells).

| EC50 [pM] | Binder |
| --- | --- |
| 170 | B1 |
| 330 | B2 |
| 610 | B3 |

Target: T1, human ROR1 (full-length, on the cell …)
Test: flow cytometry, Ba/F3-ROR1 cells
Remark: another data set of the same source
Experimental: as §1

| EC50 [pM] | Binder |
| --- | --- |
| 190 | B4 |
| 990 | B5 |
| 220 | B6 |
| 840 | B7 |
| 1430 | B8 |
| 840 | B9 |
| 1480 | B10 |
| 1160 | B11 |
| 1320 | B12 |
| 930 | B13 |
| 770 | B14 |
| 820 | B15 |
| 940 | B16 |
| 1090 | B17 |
| 980 | B18 |
| 2190 | B19 |
| 2350 | B20 |
| 1230 | B21 |
| 1200 | B22 |
| 1570 | B23 |
| 1450 | B24 |
